Assay: soluble on expression in E. coli; label from the status in PepcDB or PDB records
In the case of “GSHVFKSRLQEYAQKYKLPTPVYEIVKEGPSHKSLFQSTVILDGVRYNSLPGFFNRKAAEQSAAEVALRELAK”, the “soluble on expression in E. coli” value is reported as “soluble”.
With “GSIGLEAEIETTTDETDDGTNTVSHILNVLKDATPIEDVFSFNYPEGIEGPDIKYKKEHVKYTYGPTFLLQFKDKLNVKADAEWVQSTASKIVIPPGMGR” the “soluble on expression in E. coli” value was “soluble”.
For “GSKQVITEQIANDLVKEVVNSSVISIVKREFSEANYRKDFIDTMTRELYDAFLHERLYLIYMDSRAELKRNSTLKKKFFEKWQAS”, the “soluble on expression in E. coli” value was “soluble”.
With “GSLRPLSEVNQHSQLMAQLVEVIEDSFQMKVNKESVNYLRLIRHIRFTIERIKKEEPTKEPEKLMLLLKNEYPLCYNTAWKLIKILQQTLKKPVHEAEAVYLTLHLIPINQ” the “soluble on expression in E. coli” value was “soluble”.
In the case of “GSMAEGSAVSDPQHAARLLRALSSFREESRFCDAHLVLDGEEIPVQKNILAAASPYIRTKLNYNPPKDDGSTYKIELEGISVMVMREILDYIFSGQIRLNEDTIQDVVQAADLLLLTDLKTLCCEFLEGCIAAENCIGIRDFALHYCLHHVHYLATEYLETHFRDVSSTEEFLELSPQKLKEVISLEKLNVGNERYVFEAVIRWIAHDTEIRKVHMKDVMSALWVSGLDSSYLREQMLNEPLVREIVKECSNIPLS”, the “soluble on expression in E. coli” value is reported as “soluble”.
For “GSMASAAVANYEEEIVRPVADFSPSLWGDQFLSFSIKNQVAEKYAKEIEALKEQTRNMLLATGMKLADTLNLIDTIERLGISYHFEKEIDDILDQIYNQNSNCNDLCTSALQFRLLRQHGFNISPEIFSKFQDENGKFKESLASDVLGLLNLYEASHVRTHADDILEDALAFSTIHLESAAPHLKSPLREQVTHALEQCLHKGVPRVETRFFISSIYDKEQSKNNVLLRFAKLDFNLLQMLHKQELAQVSRWWKDLDFVTTLPYARDRVVECYFWTLGVYFEPQYSQARVMLVKTISMISIVDDTFDAYGTVKELEAYTDAIQRWDINEIDRLPDYMKISYKAILDLYKDYEKELSSAGRSHIVCHAIERMKEIVRNYNVESTWFIEGYTPPVSEYLSNALATTTYYLLATTSYLGMKSATEQDFEWLSKNPKILEASVIICRVIDDTATYEVEKSRGQIATGIECCMRDYGISTKEAMAKFQNMAETAWKDINEGLLRPTPVSTEFLTPILNLARIIEVTYIHNLDGYTHPEKVLKPHIINLLVDSIKI”, the “soluble on expression in E. coli” value was “soluble”.
With “GSMEQFELFSIDKFKCNSEAKYYLNIIEGEWHPQDLNDSPLKFILSTSDDSDYICKYINTEHKQLTLYNKNNSSIVIEIFIPNDNKILLTIMNTEALGTSPRMTFIKHK” the “soluble on expression in E. coli” value was “soluble”.
With “GSMSAKDERAREILRGFKLNWMNLRDAETGKILWQGTEDLSVPGVEHEARVPKKILKCKAVSRELNFSSTEQMEKFRLEQKVYFKGQCLEEWFFEFGFVIPNSTNTWQSLIEAAPESQMMPASVLTGNVIIETKFFDDDLLVSTSRVRLFYV” the “soluble on expression in E. coli” value was “soluble”.
With “GSNRAIRTEKIICRDVARGYENVPIPCVNGVDGEPCPEDYKYISENCETSTMNIDRNITHLQHCTCVDDCSSSNCLCGQLSIRCWYDKDGRLLQEFNKIEPPLIFECNQACSCWRNCKNRVVQSGIKVRLQLYRTAKMGWGVRALQTIPQGTFICEYVGELISDAEADVREDDSYLFDLDNKDGEVYCIDARYYGNISRFINHLCDPNIIPVRVFMLHQDLRFPRIAFFSSRDIRTGEELGFDYGDRFWDIKSKYFTCQCGSEKCKHSAEAIALEQSRLARLD” the “soluble on expression in E. coli” value was “soluble”.
With “GSPASGTSLSAAIHRTQLWFHGRISREESQRLIGQQGLVDGLFLVRESQRNPQGFVLSLCHLQKVKHYLILPSEEEGRLYFSMDDGQTRFTDLLQLVEFHQLNRGILPCLLRHCCTRVAL” the “soluble on expression in E. coli” value was “soluble”.
With “GSPEFMALTQSLKLSNGVMMPVLGFGMWKLQDGNEAETATMWAIKSGYRHIDTAAIYKNEESAGRAIASCGVPREELFVTTKLWNSDQGYESTLSAFEKSIKKLGLEYVDLYLIHWPGKDKFIDTWKAFEKLYADKKVRAIGVSNFHEHHIEELLKHCKVAPMVNQIELHPLLNQKALCEYCKSKNIAVTAWSPLGQGHLVEDARLKAIGGKYGKTAAQVMLRWEIQAGVITIPKSGNEARIKENGNIFDFELTAEDIQVIDGMNAGHRYGPDPEVFMNDF” the “soluble on expression in E. coli” value was “soluble”.
In the case of “GSPEFMIGEEVPSDQYYWAPLAQHERGSLASLDSLRKGGPPPPNWRQPELPEVIAMLGFRLDAVKSNAAAYLQHLCYRNDKVKTDVRKLKGIPVLVGLLDHPKKEVHLGACGALKNISFGRDQDNKIAIKNCDGVPALVRLLRKARDMDLTEVITGTLWNLSSHDSIKMEIVDHALHALTDEVIIPHSGWEREPNEDCKPRHIEWESVLTNTAGCLRNVSSERSEARRKLRECDGLVDALIFIVQAEIGQKDSDSKLVENCVCLLRNLSYQVHREIPQAERYQEAAPNVANNTGTSPARGYELLFQPEVVRIYISLLKESKTPAILEASAGAIQNLCAGRWTYGRYIRSALRQEKALSAIADLLTNEHERVVKAASGALRNLAVDARNKELIGKHAIPNLVKNLPGGQQNSSWNFSEDTVISILNTINEVIAENLEAAKKLRETQGIEKLVLINKSGNRSEKEVRAAALVLQTIWGYKELRKPLEKEGWKKSDFQVNLNNASRSQSSHSYDDSTLPLIDRNQKSDKKPDREEIQMSNMGSNTKSLDNNYSTPNERGDHNRTLDRSGDLGDMEPLKGTTPLMQKI”, the “soluble on expression in E. coli” value is reported as “soluble”.
For “GSPIPHHDEKTWNVGSSNRNKAENLLRGKRDGTFLVRESSKQGCYACSVVVDGEVKHCVINKTATGYGFAEPYNLYSSLKELVLHYQHTSLVQHNDSLNVTLAYPVYAQQRR”, the “soluble on expression in E. coli” value was “soluble”.
For “GSPLPAAGFKKQQRKFQYGNYCKYYGYRNPSCEDGRLRVLKPEWFRGRDVLDLGCNVGHLTLSIACKWGPSRMVGLDIDSRLIHSARQNIRHYLSEELRLPPQTLEGDPGAEGEEGTTTVRKRSCFPASLTASRGPIAAPQVPLDGADTSVFPNNVVFVTGNYVLDRDDLVEAQTPEYDVVLCLSLTKWVHLNWGDEGLKRMFRRIYRHLRPGGILVLEPQPWSSYGKRKTLTETIYKNYYRIQLKPEQFSSYLTSPDVGFSSYELVATPHNTSKGFQRPVYLFHKARSPSH”, the “soluble on expression in E. coli” value was “soluble”.
With “GSRRASVGSMSKKPPNRPGITFEIGARLEALDYLQKWYPSRIEKIDYEEGKMLVHFERWSHRYDEWIYWDSNRLRPLERPALR” the “soluble on expression in E. coli” value was “soluble”.
With “GSSGSSGMQAGKPILYSYFRSSCSWRVRIALALKGIDYEIVPINLIKDGGQQFTEEFQTLNPMKQVPALKIDGITIVQSLAIMEYLEETRPIPRLLPQDPQKRAIVRMISDLIASGIQPLQNLSVLKQVGQENQMQWAQKVITSGFNALEKILQSTAGKYCVGDEVSMADVCLVPQVANAERFKVDLSPYPTISHINKELLALEVFQVSHPRRQPDTPAELRT” the “soluble on expression in E. coli” value was “soluble”.
For “GSSVSSVPTKLEVVAATPTSLLISWDAPMSSSSVYYYRITYGETGGNSPVQEFTVPYSSSTATISGLSPGVDYTITVYAWGEDSAGYMFMYSPISINYRTC”, the “soluble on expression in E. coli” value was “soluble”.
In the case of “GSYAEGQKKRRNTLHEFKKSAKTTLTKEDPLLKIKTKKVNSADECANRCIRNRGFTFTCKAFVFDKSRKRCYWYPFNSMSSGVKKGFGHEFDLYENKDYIRNCIIGKGGSYKGTVSITKSGIKCQPWNSMIPHEHSFLPSSYRGKDLQENYCRNPRGEEGGPWCFTSNPEVRYEVCDIPQCSEV”, the “soluble on expression in E. coli” value is reported as “soluble”.
In the case of “GSYCPRNLHLLPTTDTYLSKVSDDPDNLEDVDDEELNAHLLNEEASKLKERIWIGLNADFLLEQESKRLKQE”, the “soluble on expression in E. coli” value is reported as “soluble”.
With “GTSPIQTPINTMSQQYTLPPLPYPYDALQPYISQQIMELHHKKHHQTYVNGLNAALEAQKKAAEATDVPKLVSVQQAIKFNGGGHINHSLFWKNLAPEKSGGGKIDQAPVLKAAIEQRWGSFDKFKDAFNTTLLGIQGSGWGWLVTDGPKGKLDITTTHDQDPVTGAAPVFGVDMWEHAYYLQYLNDKASYAKGIWNVINWAEAENRYIAGDKGGHPFMKL” the “soluble on expression in E. coli” value was “soluble”.
With “GTVQEIMIPAGKAGLVIGKGGETIKQLQERAGVKMILIQDGSQNTNVDKPLRIIGDPYKVQQACEMVMDILRERDQGGFGDRNEYGSRIGGGIDVPVPRHSVGVVIGRSGEMIKKIQNDAGVRIQFKQDDGTGPEKIAHIMGPPDRCEHAARIINDLLQSLRSG” the “soluble on expression in E. coli” value was “soluble”.
With “GVKCEPFEHLVIDTPQDFSGAIIERLGKRKAEMKAMNPMSDGYTRLEFEIPARGLIGYRSEFLTDTKGEGVMNHSFLEFRPFSGSVESRKNGALISMENGEATAFSLFNIQERGTLFINPQTKVYVGMV” the “soluble on expression in E. coli” value was “not soluble”.
